Assay results reported in patent US20250051474A1, “ANTI-CD97 ANTIBODIES AND ANTIBODY-DRUG CONJUGATES” (New York University, priority 2023, published 2025).
Substitutions are numbered along the chain they refer to.

Tests used:
[1] = target: T1, CD97 (ADGRE5) isoform 1 ectodomain, purified and biotinylated (human, UniProt P48960 21-552, limits assumed, biotinylated in vitro using the BirA enzyme); experiment: bead-based binding titration (biotinylated antigen on streptavidin beads, flow cytometry), 1:1 fit
T1 construct: the whole entry for isoform 1 is named here; also called CD97 isoform 1; Biotinylated CD97 isoform 1
T1 sequence: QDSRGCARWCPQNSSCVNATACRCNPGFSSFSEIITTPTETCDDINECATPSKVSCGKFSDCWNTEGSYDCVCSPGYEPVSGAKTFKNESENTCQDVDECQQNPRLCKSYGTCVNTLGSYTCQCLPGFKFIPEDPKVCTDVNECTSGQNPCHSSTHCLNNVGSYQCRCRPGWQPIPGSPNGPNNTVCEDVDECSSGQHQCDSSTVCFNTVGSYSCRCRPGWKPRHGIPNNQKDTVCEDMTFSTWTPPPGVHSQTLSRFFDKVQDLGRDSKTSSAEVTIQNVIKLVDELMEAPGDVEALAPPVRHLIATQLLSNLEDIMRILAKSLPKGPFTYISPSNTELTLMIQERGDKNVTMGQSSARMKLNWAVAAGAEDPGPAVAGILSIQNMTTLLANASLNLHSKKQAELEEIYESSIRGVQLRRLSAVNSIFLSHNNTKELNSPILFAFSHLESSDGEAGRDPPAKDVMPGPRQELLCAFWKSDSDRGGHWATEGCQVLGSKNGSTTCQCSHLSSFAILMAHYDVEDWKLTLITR

[2] = target: T2, EMR2 (EGF-like module-containing mucin-like hormone receptor-like 2) isoform 4 ectodomain, purified and … (UniProt Q9UHX3-4 24-447, limits assumed, biotinylated in vitro using the BirA enzyme); experiment: as above
T2 construct: extracellular domain; Close homolog of CD97 used as specificity control
T2 sequence (looked up): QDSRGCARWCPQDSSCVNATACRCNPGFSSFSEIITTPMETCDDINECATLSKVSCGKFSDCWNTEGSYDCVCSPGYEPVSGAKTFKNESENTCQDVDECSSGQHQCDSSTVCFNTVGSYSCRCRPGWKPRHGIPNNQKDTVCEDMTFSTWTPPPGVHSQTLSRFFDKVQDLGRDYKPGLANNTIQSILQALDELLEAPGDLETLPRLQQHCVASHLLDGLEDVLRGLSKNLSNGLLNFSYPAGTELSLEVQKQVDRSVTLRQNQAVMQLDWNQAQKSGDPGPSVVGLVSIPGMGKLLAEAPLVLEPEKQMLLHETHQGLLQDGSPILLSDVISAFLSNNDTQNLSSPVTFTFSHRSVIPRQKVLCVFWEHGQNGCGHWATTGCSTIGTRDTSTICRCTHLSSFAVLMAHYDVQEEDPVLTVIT

[3] = target: T3, CD97 (ADGRE5) isoform 2 ectodomain, purified and biotinylated (human, UniProt P48960 21-552, biotinylated in vitro using the BirA enzyme); experiment: as above
T3 construct: the whole entry for isoform 2 is named here; also called CD97 isoform 2
T3 sequence: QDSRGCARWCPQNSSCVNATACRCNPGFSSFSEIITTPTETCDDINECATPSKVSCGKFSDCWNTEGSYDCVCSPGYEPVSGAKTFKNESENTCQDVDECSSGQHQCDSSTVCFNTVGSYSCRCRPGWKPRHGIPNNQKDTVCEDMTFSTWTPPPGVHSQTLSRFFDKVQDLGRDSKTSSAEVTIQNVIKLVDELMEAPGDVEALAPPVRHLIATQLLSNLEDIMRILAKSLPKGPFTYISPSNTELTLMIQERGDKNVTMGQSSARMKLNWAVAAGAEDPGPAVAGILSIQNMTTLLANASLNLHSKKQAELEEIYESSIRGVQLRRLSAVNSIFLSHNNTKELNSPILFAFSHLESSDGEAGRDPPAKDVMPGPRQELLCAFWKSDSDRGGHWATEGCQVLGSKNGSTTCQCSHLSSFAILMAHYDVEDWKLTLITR

[4] = target: EMR2 (EGF-like module-containing mucin-like hormone receptor-like 2) isoform 1 ectodomain, purified and biotinylated (UniProt Q9UHX3); experiment: as above
[5] = target: T1, CD97 (ADGRE5) isoform 1 ectodomain, …; experiment: bead-based binding titration (biotinylated antigen on streptavidin beads, flow cytometry), 1:1 fit [Continued]
[6] = target: T3, CD97 (ADGRE5) isoform 2 ectodomain, …; experiment: as above
[7] = target: T2, EMR2 (EGF-like module-containing …); experiment: bead-based binding titration (biotinylated antigen on streptavidin beads, flow cytometry) [Continued]
[8] = target: T3, CD97 (ADGRE5) isoform 2 ectodomain, …; experiment: as above
[9] = target: T1, CD97 (ADGRE5) isoform 1 ectodomain, …; experiment: bead-based binding assay: biotinylated CD97 isoform 1 on streptavidin beads, Fab titrated, flow cytometry MFI, 1:1 fit; EXPERIMENT 2
[10] = target: T1, CD97 (ADGRE5) isoform 1 ectodomain, …; experiment: bead-based binding assay: biotinylated CD97 isoform 1 on streptavidin beads, Fab titrated, flow cytometry MFI, 1:1 fit; EXPERIMENT 1
[11] = target: T4, CD97 isoform 1 (Homo sapiens, UniProt P48960); experiment: Bead-based binding assay of Fab clones; details: Fab format, compared with wild type A8
T4 construct: The genes encoding the ectodomains of CD97 (isoforms 1 and 2) and EMR2 (isoforms 1 and 4); inferred from IMAC purification; inferred from BirA biotinylation; made in house; host or cells: expi293F
T4 sequence (P48960 21-552 limits assumed): T1 sequence
Method: Binding titration of the Fab clones was performed by a bead binding assay, as described previously (7,8). Briefly, biotinylated antigens were immobilized on Dynabeads M-280 streptavidin (Thermo Fisher). The biotinylated Fab clones were titrated into a solution containing the antigen-coated beads. After incubation, the beads were washed three times and incubated with anti-human F(ab′)2-Alexa Fluor 647 (Jackson ImmunoResearch). The beads were further washed three times and analyzed on a HyperCyt (Intellicyt).
The genes encoding the ectodomains of CD97 (isoforms 1 and 2) and EMR2 (isoforms 1 and 4) (FIG. 1) were synthesized (Integrated DNA Technologies) and cloned into the mammalian expression vector pBCAG. The expi293F cells (Thermo Fisher) were transfected with the vectors using the ExpiFectamine 293 transfection kit (Thermo Fisher) according to the manufacturer's protocol. The cells were incubated at 37° C. with 8% CO2. The proteins were purified from the cell culture supernatant by immobilized metal affinity chromatography (IMAC). The purified proteins were biotinylated in vitro using the BirA enzyme in the presence of 0.5 mM Biotin and 10 mM ATP. After the removal of the BirA enzyme by IMAC, the proteins were further purified by size exclusion chromatography using a Superdex 200 10/300 Increase (Cytiva). The purity of the proteins was confirmed by SDS-PAGE.

[12] = target: T1, CD97 (ADGRE5) isoform 1 ectodomain, …; experiment: bead-based binding assay: biotinylated CD97 isoform 1 on streptavidin beads, Fab titrated, flow cytometry MFI; EXPERIMENT 1 and EXPERIMENT 2

B1: Fab 2V10 (Fab, V domains shown)
VH: EVQLVESGGGLVQPGGSLRLSCAASGFTISSSSIHWVRQAPGKGLEWVAYIYPSSGSTSYADSVKGRFTISADTSKNTAYLQMNSLRAEDTAVYYCARPWYYSTFNKKWWDYQGLDYWGQGTLVTVSS
VL: DIQMTQSPSSLSASVGDRVTITCRASQSVSSAVAWYQQKPGKAPKLLIYSASSLYSGVPSRFSGSRSGTDFTLTISSLQPEDFATYYCQQSWWDPITFGQGTKVEIKR
notes: second discovery campaign; biotinylated Fab in the bead assay; same clone as m10 in Fab format; also called Antibody Clone 2V10
B1 showed a Kd [1] of 2.7 nM, a Kd [2] of 1.5 nM and a Kd [3] of 3 nM. For the same molecule, the Kd [4] was 1.6 nM.

B2: Fab D25 (Fab, V domains shown)
VH: EVQLVESGGGLVQPGGSLRLSCAASGFTFSSSSIHWVRQAPGKGLEWVASISPYYGSTSYADSVKGRFTISADTSKNTAYLQMNSLRAEDTAVYYCARKLEWGMFFWSPYFRALDYWGQGTLVTVSS
VL: B1 VL with W92S, W93S, D94S, P95L
notes: first discovery campaign; also called Antibody Clone D25
In the case of B2, the Kd [5] is reported as 14 nM and the Kd [6] is reported as 14 nM.

B3: Fab D9 (Fab, V domains shown)
VH: EVQLVESGGGLVQPGGSLRLSCAASGFTVSSSSIHWVRQAPGKGLEWVASISSYYGYTSYADSVKGRFTISADTSKNTAYLQMNSLRAEDTAVYYCARYPMFSYYYWYYGMDYWGQGTLVTVSS
VL: B1 VL with W92S, W93G, D94Y, I96V
notes: first discovery campaign; also called Antibody Clone D9
For B3, the Kd [5] was 3.4 nM and the Kd [6] was 3.6 nM.

B4: Antibody clone C27, Fab format (Fab, V domains shown)
VH: EVQLVESGGGLVQPGGSLRLSCAASGFTLSSSSIHWVRQAPGKGLEWVASIYSYYGSTYYADSVKGRFTISADTSKNTAYLQMNSLRAEDTAVYYCARYRGNMYYWESWYGSYWALDYWGQGTLVTVSS
VL: B1 VL with W92S, W93S, D94S, P95L
With B4 the binding result [7] was “no binding (tested: 50 nM)”, the binding result [8] was “no binding (tested: 50 nM)” and the Kd [5] was 16 nM.

B5: Fab 2W1 (Fab, V domains shown)
VH: EVQLVESGGGLVQPGGSLRLSCAASGFTVSSSSIHWVRQAPGKGLEWVAYISSSSGSTYYADSVKGRFTISADTSKNTAYLQMNSLRAEDTAVYYCARDFYFGSYYSFGWGLDYWGQGTLVTVSS
VL: B1 VL with S91D, W92S, W93S, D94Y
notes: second discovery campaign; biotinylated Fab in the bead assay; also called Antibody Clone 2W1
With B5 the Kd [1] was 18 nM, the Kd [2] was 52 nM and the Kd [3] was 18 nM. It also gave a Kd [4] of 47 nM.

B6: Fab D12 (Fab, V domains shown)
VH: EVQLVESGGGLVQPGGSLRLSCAASGFTFSSSSIHWVRQAPGKGLEWVASISSSSGSTSYADSVKGRFTISADTSKNTAYLQMNSLRAEDTAVYYCARIRHYHWYEIPYWDWAIDYWGQGTLVTVSS
VL: B1 VL with W92S, W93S, D94S, P95L
notes: first discovery campaign; also called Antibody Clone D12
Molecule B6 has a Kd [5] of 3 nM and a Kd [6] of 3.2 nM.

B7: N100bHE (Fab, V domains shown)
VH: EVQLVESGGGLVQPGGSLRLSCAASGFTISSYSIHWVRQAPGKGLEWVASISPYYGSTSYADSVKGRFTISADTSKNTAYLQMNSLRAEDTAVYYCARSWYYYEQEPYWYQKEEQALDYWGQGTLVTVSS
VL: DIQMTQSPSSLSASVGDRVTITCRASQSVSSAVAWYQQKPGKAPKLLIYSASSLYSGVPSRFSGSRSGTDFTLTISSLQPEDFATYYCQQSVYSPVTFGQGTKVEIK
notes: also called A8 N100bHE; Antibody Clone A8 N100bHE; copies: 1 + 1
B7 was tested, and the Kd [9] was 150 nM and the Kd [10] was 160 nM.

B8: A8 Y100fHA: A8 mutant, VL SEQ ID NO: 9, VH SEQ ID NO: 111 (antibody, V domains shown)
VH: B7 VH with E106N, Y110A
VL: DIQMTQSPSSLSASVGDRVTITCRASQSVSSAVAWYQQKPGKAPKLLIYSASSLYSGVPSRFSGSRSGTDFTLTISSLQPEDFATYYCQQSVYSPVTFGQGTKVEIKRTV
For B8, the “binding of A8 CDRH3 mutants to CD97 isoform 1” value [11] was “substantially reduced or abolished binding to CD97”.

B9: W100eHA (Fab, V domains shown)
VH: B7 VH with E106N, W109A
VL: B7 VL
notes: also called A8 W100eHA; Antibody Clone A8 W100eHA; copies: 1 + 1
B9: no binding [12].
